Biological target: the molecule itself
Test: crystal structure; hanging drop, room temperature; 50 mM sodium citrate pH 5.3, 1.7 M (NH4)2SO4 for PCNA-D17K; 50 mM sodium citrate pH 5.6, 2 M (NH4)2SO4 for PCNA-D21K; molecular replacement with wild-type PCNA (PDB 4YHR)

B1: PCNA-D17K (recombinant, crystallised) (natural protein, S. cerevisiae)
chain: MLEAKFEEASLFKRIIKGFKDCVQLVNFQCKEDGIIAQAVDDSRVLLVSLEIGVEAFQEYRCDHPVTLGMDLTSLSKILRCGNNTDTLTLIADNTPDSIILLFEDTKKDRIAEYSLKLMDIDADFLKIEELQYDSTLSLPSSEFSKIVRDLSQLSDSINIMITKETIKFVADGDIGSGSVIIKPFVDMEHPETSIKLEMDQPVDLTFGAKYLLDIIKGSSLSDRVGIRLSSEAPALFQFDLKSGFLQFFLAPKFNDEE
notes: PCNA (POL30), S. cerevisiae, with D17K; modified pET-28 vector with an N-terminal 6-His tag and a PreScission Protease cleavage site; also called PCNA mutant D17K
B1: binds.

B2: PCNA-D21K (recombinant, crystallised) (natural protein, S. cerevisiae)
chain: MLEAKFEEASLFKRIIDGFKKCVQLVNFQCKEDGIIAQAVDDSRVLLVSLEIGVEAFQEYRCDHPVTLGMDLTSLSKILRCGNNTDTLTLIADNTPDSIILLFEDTKKDRIAEYSLKLMDIDADFLKIEELQYDSTLSLPSSEFSKIVRDLSQLSDSINIMITKETIKFVADGDIGSGSVIIKPFVDMEHPETSIKLEMDQPVDLTFGAKYLLDIIKGSSLSDRVGIRLSSEAPALFQFDLKSGFLQFFLAPKFNDEE
notes: PCNA (POL30), S. cerevisiae, with D21K; modified pET-28 vector with an N-terminal 6-His tag and a PreScission Protease cleavage site; also called PCNA mutant D21K
B2: binds.

Reference: publication PMC6648347, “Effective mismatch repair depends on timely control of PCNA retention on DNA by the Elg1 complex” (Nucleic Acids Research, 2019)
